{"source": "patent US20210230600", "about": "“NUCLEIC ACID-DRUG COMPLEX AND USE THEREOF” (Industrial Technology Research Institute, published 2021)", "binders": {"B1": {"name": "PDL1-CpG30-PS (ssDNA)", "DNA": "CACATCAACTCATTGATAGACAATGCGTCCTCGAACGTTCGAACGTTCGAACGTTCGAAT", "modifications": "PS at all linkages of the CpG part"}, "B2": {"name": "ApDC5-PS (ssDNA)", "DNA": "TCGAACGTTCGAACGTTCGAACGTTCGAATCACATCAACTCATTGATAGACAATGCGTCC", "modifications": "PS at all linkages of the CpG part"}, "B3": {"name": "ApDC5-7PS (ssDNA)", "DNA": "B2 DNA", "modifications": "PS at part of the linkages of the CpG part"}, "B4": {"name": "ApDC-A21A (ssDNA)", "DNA": "TCGAACGTTCGAACGACTCATTGATAGACAATGCGTTCGAACGTTCGAACG", "modifications": "PS at all linkages of the CpG part"}, "B5": {"name": "ApDC-A21B (ssDNA)", "DNA": "TCGAACGTTCGAACGACTCATTGATAGACAATGCGTTTCGAACGTTCGAAT", "modifications": "PS at all linkages of the CpG part"}, "B6": {"name": "ApDC-A33B (ssDNA)", "DNA": "TTTCGAACGTTCGAACGCCACATCAACTCATTGATAGACAATGCGTCCACCGTTCGAACGTTCGATT", "modifications": "PS at part of the linkages of the CpG part"}, "B7": {"name": "PDL1-CpG29-9PS (ssDNA)", "DNA": "CACATCAACTCATTGATAGACAATGCGTCCTTCGAACGTTCGAACGTTCGAACGTTCGAA", "modifications": "PS at part of the linkages of the CpG part"}}, "details_in_all_cases": "tags: HEK-Blue mouse TLR9 reporter cells, InvivoGen", "key": {"TLR9 [1]": {"target": "T1, TLR9 (Mus musculus, UniProt Q9EQU3 Q9EQU3:26-1032)", "T1 sequence": "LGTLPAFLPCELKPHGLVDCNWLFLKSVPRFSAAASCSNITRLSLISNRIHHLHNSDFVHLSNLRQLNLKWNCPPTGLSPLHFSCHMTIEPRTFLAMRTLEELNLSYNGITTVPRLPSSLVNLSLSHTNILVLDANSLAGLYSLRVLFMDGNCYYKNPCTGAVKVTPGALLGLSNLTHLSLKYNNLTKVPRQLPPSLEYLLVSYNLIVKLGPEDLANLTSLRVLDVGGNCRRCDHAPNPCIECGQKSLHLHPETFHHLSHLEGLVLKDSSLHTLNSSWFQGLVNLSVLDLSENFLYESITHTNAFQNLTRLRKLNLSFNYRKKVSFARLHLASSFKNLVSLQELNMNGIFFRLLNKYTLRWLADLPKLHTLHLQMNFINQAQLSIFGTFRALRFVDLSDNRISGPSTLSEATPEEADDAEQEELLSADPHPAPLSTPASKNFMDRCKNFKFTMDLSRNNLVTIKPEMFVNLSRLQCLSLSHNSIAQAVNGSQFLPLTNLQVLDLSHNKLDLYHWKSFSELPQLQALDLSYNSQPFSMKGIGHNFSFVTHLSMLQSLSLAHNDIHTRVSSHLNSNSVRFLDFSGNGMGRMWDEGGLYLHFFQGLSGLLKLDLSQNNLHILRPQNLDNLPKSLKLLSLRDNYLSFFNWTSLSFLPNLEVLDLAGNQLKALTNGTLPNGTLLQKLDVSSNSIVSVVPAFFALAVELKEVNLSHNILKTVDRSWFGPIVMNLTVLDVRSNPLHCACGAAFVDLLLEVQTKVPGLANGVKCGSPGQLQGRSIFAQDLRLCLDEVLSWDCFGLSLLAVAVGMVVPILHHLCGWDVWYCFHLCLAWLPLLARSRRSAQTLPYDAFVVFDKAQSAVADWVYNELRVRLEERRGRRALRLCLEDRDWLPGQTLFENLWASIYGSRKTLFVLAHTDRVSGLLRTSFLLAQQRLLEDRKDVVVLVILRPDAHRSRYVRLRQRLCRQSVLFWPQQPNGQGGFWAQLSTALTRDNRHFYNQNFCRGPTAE", "experiment": "cell_activity; SEAP reporter activation, 37 C", "procedure": "(§1) HEK-Blue cells expressing mouse TLR9 (InvivoGen) were cultured in a complete DMEM medium (Dulbecco's modified Eagle's medium), which was supplemented with 100 μg/ml Normocin, 30 μg/ml Blasticidin, and 100 μg/ml Zeocin (all InvivoGen). HEK-Blue cells contained a secreted alkaline phosphatase (SEAP) reporting system, which produces colorimetric changes after interacting with TLR9.\n(§2) HEK-Blue Detection mixture (cell culture medium for SEAP detection, InvivoGen) is used to detect the presence of SEAP, which is produced by stimulation of a TLR9 ligand through NF-κB activation. Detection mixture contained nutrients for cell growth and color substrate, whose color will change when it is hydrolyzed by SEAP. When HEK 293 cells expressing mouse TLR9 (InvivoGen) reached 60-80% confluency, they were collected, centrifuged and resuspended in Detection mixture. Cells (72,000) were seeded in each well of a 96-well plate (180 μl). The cells were then treated in combination with 20 μl PBS (unstimulated; as a negative control group), “CpG-L0-PS” (as a positive control group) or nucleic acid-drug complex samples of varying concentrations in PBS in duplicate wells, and incubated for 24 hours at 37° C. in 5% CO₂. The plate was read spectrophotometrically by using a multimode plate reader (Tecan, Infinite™ M200 PRO, Männedorf, Switzerland) at a wavelength of 620 nm to 655 nm."}, "TLR9 [2]": {"target": "T1, TLR9", "experiment": "cell_activity; SEAP reporter activation, 37 C", "procedure": "as §1, §2\nThe experimental content is substantially the same as that of FIG. 4. The sample “CpG-L0-PS” in FIG. 5 corresponds to SEQ ID NO: 10 (which was not connected with anti-PD-L1 aptamer), and all phosphodiester bonds in the CpG oligonucleotide sequence were modified to phosphorothioate bonds.", "remark": "listed apart in the source"}, "TLR9 [3]": {"target": "T1, TLR9", "experiment": "cell_activity; SEAP reporter activation, 37 C; 2.1 nM in FIG. 5 experiment", "procedure": "as §1, §2"}, "TLR9 [4]": {"target": "T1, TLR9", "experiment": "cell_activity; SEAP reporter activation, 37 C; 5.5 nM in FIG. 5 experiment", "procedure": "as §1, §2"}, "TLR9 [5]": {"target": "T1, TLR9", "experiment": "cell_activity; SEAP reporter activation, 37 C; 1.3 nM in FIG. 5 experiment", "procedure": "as §1, §2"}}}
{"binder": "B1", "values": [{"measurement": "EC50", "setting": "TLR9 [1]", "result": 2.36, "unit": "nM"}]}
{"binder": "TCGAACGTTCGAATACTCATTGATAGACAATGCGTTTCGAACGTTCGAAT (ssDNA, PS at all linkages of the CpG part)", "note": "[ApDC-B21B]", "values": [{"measurement": "EC50", "setting": "TLR9 [2]", "result": 0.6, "unit": "nM"}]}
{"binder": "TCGAACGTTCGAACGTTCGAACGTTCGAAT (ssDNA, PS at all linkages)", "note": "[CpG-L0-PS]", "values": [{"measurement": "EC50", "setting": "TLR9 [3]", "result": 2.09, "unit": "nM"}]}
{"binder": "B2", "values": [{"measurement": "EC50", "setting": "TLR9 [4]", "result": 2.48, "unit": "nM"}]}
{"binder": "B3", "values": [{"measurement": "EC50", "setting": "TLR9 [1]", "result": 72.2, "unit": "nM"}]}
{"binder": "B4", "values": [{"measurement": "EC50", "setting": "TLR9 [2]", "result": 0.6, "unit": "nM"}]}
{"binder": "B5", "values": [{"measurement": "EC50", "setting": "TLR9 [5]", "result": 0.77, "unit": "nM"}]}
{"binder": "B6", "values": [{"measurement": "EC50", "setting": "TLR9 [2]", "result": 16400, "unit": "nM"}]}
{"binder": "B7", "values": [{"measurement": "EC50", "setting": "TLR9 [1]", "result": 149, "unit": "nM"}]}
